Reference: the supplement of paper PMC9170038

Test system: MS2 coat protein
Experiment: apparent KD of MS2 coat protein; designed switch direction (-1 OFF switch, 1 ON switch): -1; higher = weaker reporter binding
In short: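 For each design, the apparent KD is the median over clusters of curves fitted to normalised cluster fluorescence. Clusters held RNA switches with common flanks, transcribed on Illumina chips by stalled E. coli RNA polymerase. These were titrated with SNAP-549-labelled MS2 coat protein, doubling from 0.7 or 1.5 nM to 3 µM, without input, with 200 uM small-molecule ligand, or with an oligonucleotide input.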

[1] = Eterna round: R95, input ligand: microRNA oligo, concentration not stated
[2] = Eterna round: R95, input ligand: FMN 200 uM
[3] = Eterna round: R95, input ligand: none
[4] = input ligand: microRNA oligo, concentration not stated

| Sequence | apparent KD of MS2 coat protein (input ligand: FMN 200 uM) [nM] | apparent KD of MS2 coat protein (input ligand: none) [nM] | apparent KD of MS2 coat protein [1] [nM] | apparent KD of MS2 coat protein [2] [nM] | apparent KD of MS2 coat protein [3] [nM] | apparent KD of MS2 coat protein [4] [nM] |
| --- | --- | --- | --- | --- | --- | --- |
| GCCGUAAAUGUGAGGAUAUACCUAUGGAUACAUAGGUAGAAGGCACAUGAGGAUCACCCAUGUUCCAAAUCGGC [Eli bmx4 4.07] (Eterna round: R97, puzzle: Brourd's mod of Exclusion 4) | 47.9 | 132 | – | – | – | – |
| AUAAUAAAGGAGGAUAUCGUAUCGGAAACGAUACGAGAAGGUCUAACAUGAGGAUCACCCAUGUUCCUCAAAUA [Mat - Exclusion 6 - Eli Mod - D49] (puzzle: Exclusion 6) | – | – | 40.9 | – | – | – |
| AAAGAACAUGAGGAUCACCCAUGUGAGGAUAUGUAAGGAUAGGACCGAAGAAGCGAGAACAGAAGGCACAGAGG [JR_Exclu1_Sub069] (puzzle: Exclusion 1) | – | – | 23.4 | 35 | 18.6 | – |
| GACAAGGUGUAGGAUAUGCUUAGCCUUAAGAAAGCAGAAGGACAAACUUGAGGAUCACCCAAGUGGUCCAAACA [Diraveti] (Eterna round: R97, puzzle: Exclusion 6) | 65.5 | 19.6 | – | – | – | – |
| AGUACUAUCACGAAAGUGAUAGUACAAUAAGCAAGUGAAACAUGAGGAUCACCCAUGUCCUCAUUUGCUCGUCUUAU [salish99_TOv2_r3_200again] (puzzle: Sensor v3, turn-off variant 2) | – | – | 749 | 17.8 | 17 | – |
| GCACUUGAACAUGAGGAUCACCCAUGUGUUUUUCUUGUUCGGCAGGAUAUCGUCUAGCGCCAGGACGAGAAGGGCCAAUAAAAG [Ratiarveed] (Eterna round: R96, puzzle: Exclusion NG 3) | 77.8 | 141 | – | – | – | 61 |
| CCGACGUGAGGAUAUCCAUCUGGAUCAGACUAGAUCCUGAUGGAGAAGGCACAUGAGGAUCACCCAUGUUACGG [Eli 4x 4.41] (Eterna round: R97, puzzle: Exclusion 4) | 909 | 524 | – | – | – | – |
| UUUAUAAUUUCAAUCUUCGCCAGCAAACUAACACUGGCCACAUGAGGAUCACCCAUGUUUUUUGUUCGUUUUAUUCU [Cesoorso] (puzzle: Sensor v3, turn-off variant 2) | – | – | 62.9 | 21.6 | 23.3 | – |
| AAAAAGCGAGGAUAUGCAUAAGGACCCGGGAGGGAAGUCGAACAUGAGGAUCACCCAUGUAGAAGGCGCAAAAA [Exclss2-IV] (puzzle: Exclusion 2) | – | – | 11.5 | 16 | 15.4 | – |
| GGUCAAGAACAGCUCCGCGCUGCCCUUGACCGCUCAUUUACAUGAGGAUCACCCAUGUUUUUUGCUUGUCUUGUUUC [Bebiesgebe] (puzzle: Sensor v3, turn-off variant 2) | – | – | 127 | 20 | 22.6 | – |
| AGAUGUAGAUACCGGUCCUACAUGAGGAUCACCCAUGUAGCUUGACGUGCGGGCGGCGCUCGUCGGUCUACCAGUAG [salish99_TOv1_r3_100] (puzzle: Sensor v3, turn-off variant 1) | – | – | 28.6 | 27.3 | 36.2 | – |
| CUAGAUCUUCGGAUCUAGUACAUGAGGAUCACCCAUGUGACGAGUUACAUGAAAAACAAGCUUUUUGCUCGUCUUAU [Sensor v3 - Turn-off variant 1 - 8] (puzzle: Sensor v3, turn-off variant 1) | – | – | 102 | 41.6 | 46.6 | – |
| GCUCGCGGGCAAGGAUAUCCUACGCUGUUCUGGUUCGUGUCUGUUACAUGAGGAUCACCCAUGUGGGAGAAGGUGCACCAGGGC [Design 48] (Eterna round: R96, puzzle: Exclusion NG 2) | 13.7 | 14.7 | – | – | – | 9.98 |
| CUUUCGUGAGGAUAUCAGUAGUAAAAAAAUAAAAUUACUACUGAGAAGGCACAUGAGGAUCACCCAUGUUCCUC [salish99_ex3_r3_097] (puzzle: Exclusion 4) | – | – | 25.7 | – | – | – |
| CCUCUACAUGAGGAUCACCCAUGUGAGGAUAUCUCGGAGCAGCCACUUAAGGCGCUCCAGAGAAGGCACGUGUA [Resogeorza] (puzzle: Exclusion 1) | – | – | 17.6 | – | – | – |
| CAGUUUUGAGUGAGGAUAUGUGAUCCAAAGGGUCAACAGAAGGCACAUGAGGAUCACCCAUGUAAUCCAAUUGG [Eternabot (L2) Solution 37] (Eterna round: R97, puzzle: Brourd's mod of Exclusion 4) | 1520 | 3760 | – | – | – | – |
| GCUUGUAGAGGAUAUACGAGGGCCCGAGCGGAUAACACCGCACAUGAGGAUCACCCAUGUAGAAGGCUACUAUU [JL-ex2-4.18 ViennaUCT mod] (Eterna round: R97, puzzle: Exclusion 2) | 96 | 105 | – | – | – | – |

| Sequence | apparent KD of MS2 coat protein (input ligand: FMN 200 uM) [nM] | apparent KD of MS2 coat protein (input ligand: none) [nM] | apparent KD of MS2 coat protein [1] [nM] | apparent KD of MS2 coat protein [2] [nM] | apparent KD of MS2 coat protein [3] [nM] | apparent KD of MS2 coat protein [4] [nM] |
| --- | --- | --- | --- | --- | --- | --- |
| GCGACACGAGGAUAUCGGGUCUCUAACAUGAGGAUCACCCAUGUGGCGGCAGGCGUAAGACGAGAAGGCGUAUUCA [Eternabot (L2) Solution 65] (Eterna round: R97, puzzle: Exclusion 5) | 26.6 | 34.3 | – | – | – | – |
| UUUAACAGAGGAUAUGCGAAUAAAUAAAACUUUUUUUUUUAACAUGAGGAUCACCCAUGUAGAAGGCUGAUAUU [Ex2 #23] (Eterna round: R97, puzzle: Exclusion 2) | 34.9 | 29.9 | – | – | – | – |
| AACCUGAGGCUUUGCUUUAGGUGUACAUGAGGAUCACCCAUGUAGGAUAUGGUAGGCUUUGCUUACCAGAAGGACAUGUUAAUU [JL ENG3 1.11] (Eterna round: R96, puzzle: Exclusion NG 3) | 201 | 47.1 | – | – | – | 48.9 |
| GAUUAUGCGAGCUUUAGGGACAUGAGGAUCACCCAUGUUCGUCUUAUUAGUCUGAGUACACUGACAUACCUAAAUCU [JMF 62] (puzzle: Sensor v3, turn-off variant 1) | – | – | 14.8 | 14.2 | 13.3 | – |
| AUAUUAAUAGUAAGGAUAUGCGUAUAUGUAGUUAUGCAGAAGGUACAUGAGGAUCACCCAUGUAUUAAUGUGUA [LRO-BmodExc4-04-Oppy's Opus] (Eterna round: R97, puzzle: Brourd's mod of Exclusion 4) | 16 | 16 | – | – | – | – |
| AAAUGUUCGGAGGAUAUAGAACGAUUGUCCGAGCUAGAAGGCCGAACAUGAGGAUCACCCAUGUGUACCUGAAA [Atmare] (puzzle: Exclusion 6) | – | – | 38.8 | 256 | 41.2 | – |
| AAAUUCAGAGGAUAUGCGCAUAGAUAAGACUUUUUUUCUUAACAUGAGGAUCACCCAUGUAGAAGGCUGUAAAC [Ex2 #61] (Eterna round: R97, puzzle: Exclusion 2) | 18.8 | 16.2 | – | – | – | – |
| GUAGAGUCAGGAUAUACGAGAUCGAAAGAUCUUUGAUCCUAACAUGAGGAUCACCCAUGUAGAAGGGACUCUAC [Omei mod 3 to Eli's favorate candidate (ch.parushev)] (Eterna round: R97, puzzle: Exclusion 2) | 698 | 58 | – | – | – | – |
| UUCGUGCAGCUUUGCUGUACGCGUACAUGAGGAUCACCCAUGUAGGAUAUGGUAGGCUUUGCUUACUAGAAGGAUAUGGUGAGC [JL EXNG3 1.33] (Eterna round: R96, puzzle: Exclusion NG 3) | 85.6 | 36.1 | – | – | – | 37.2 |
| CUUAUGUCAGGAUAUUAGUAGUAAAUGAAUAAAAUUAUUACUGAGAAGGGACAUGAGGAUCACCCAUGUUCCUC [Mat - Exclusion 4 - Eli Mod - D4] (Eterna round: R97, puzzle: Exclusion 4) | 149 | 19.6 | – | – | – | – |
| GGGAAGAACCAACAAGUUAACAUGAGGAUCACCCAUGUUGACUUCAUGUGCACGCAAAGCGUGCAAGCUCGUCUUAU [AK-miRNA-r3-15] (Eterna round: R97, puzzle: Sensor, turn-off variant 1) | 17.9 | 17.2 | – | – | – | – |
| GUUGUGUGAGGAUAUGCCUGGCCGUGAGGCCAGAUUGGGUGGCAGAAGGUACAUGAGGAUCACCCAUGUACGGG [salish99_ex4_4_005] (Eterna round: R97, puzzle: Exclusion 4) | 47.7 | 47.5 | – | – | – | – |
| CAAAUCUGAGGAUAUCGAUUUUUGUACAUGAGGAUCACCCAUGUCCUUUUUAUUAAAUCCCGAGAAGGCAGUGUAU [JR_E5_Sub096] (puzzle: Exclusion 5) | – | – | 24.3 | – | – | – |
| AUUUUAACAUAGGAUAUCGAAUUUAUUAUUUAACGAGAAGGAUGAACAUGAGGAUCACCCAUGUGGUAUCAUGG [JL-ex6-3.02] (puzzle: Exclusion 6) | – | – | 204 | – | – | – |
| UGCAGACGAGGAUAUGAUAAAGAUCACAUGAGGAUCACCCAUGUAGCGUCGAUAGACGCAUCAGAAGGCGUCUGCA [E5/1-A2] (Eterna round: R97, puzzle: Exclusion 5) | 16.3 | 16 | – | – | – | – |
| UAUUAACAAGUAAGAUCCCACAUGAGGAUCACCCAUGUGCUCGUCUUAUAAGGUACUGUGACGAAAGUCACGGUACC [Dup of Eli's R95 Sensor 3, v1 - 87] (Eterna round: R97, puzzle: Sensor, turn-off variant 1) | 16.3 | 16.5 | – | – | – | – |
| UAUUAGCAAGCGAGGUCCCACAUGAGGAUCACCCAUGUGCUCGUCUUAUAAGGUACUGUGACGAAAGUCACGGUACC [Sensor 3, v1 - 91 v8] (Eterna round: R97, puzzle: Sensor, turn-off variant 1) | 14.7 | 13.1 | – | – | – | – |
